Laboratory results taken from patent publication US20070105771A1 (Y S THERAPEUTICS, published 2007).

How the values were obtained:
[1] = target: human CD26 on the cell surface (human, UniProt P27487 1-766); experiment: cell-based or functional assay
[2] = target: T1, human CD26-derived 13 mer peptide 100 (human); experiment: peptide microarray
T1 peptide: LQYPKTVRVPYPK
Method: (§1) The overnight incubation was followed by three washings with each of PBS buffer pH 7.5 and water. The microarrays were then scanned using ArrayWorx-Microarray Scanner.
(§2) The SPOT recognition software package ArrayPro was used for data analysis. The mean of signal intensities from 3 identical subarrays on each microarray image was used for data evaluation.

[3] = target: T2, human CD26-derived 13 mer peptide 45 (human); experiment: peptide microarray
T2 peptide: DLNKRQLITEERI
Method: as §1, §2

[4] = target: T3, human CD26-derived 13 mer peptide 14 (human); experiment: peptide microarray
T3 peptide: NNILVFNAEYGNS
Method: as §1, §2

[5] = target: T4, human CD26-derived 13 mer peptide 25 (human); experiment: peptide microarray
T4 peptide: DEFGHSINDYSIS
Method: as §1, §2

[6] = target: T5, human CD26-derived 13 mer peptide 105 (human); experiment: peptide microarray
T5 peptide: YPKAGAVNPTVKF
Method: as §1, §2

[7] = target: T6, human CD26-derived 13 mer peptide 74 (human); experiment: peptide microarray
T6 peptide: IYNGITDWVYEEE
Method: as §1, §2

[8] = target: T7, human CD26-derived 13 mer peptide 27 (human); experiment: peptide microarray
T7 peptide: HSINDYSISPDGQ
Method: as §1, §2

[9] = target: T8, human CD26-derived 13 mer peptide 21 (human); experiment: peptide microarray
T8 peptide: VFLENSTFDEFGH
Method: as §1, §2

[10] = target: T9, human CD26-derived 13 mer peptide 88 (human); experiment: peptide microarray
T9 peptide: FLAYAQFNDTEVP
Method: as §1, §2

[11] = target: T10, human CD26-derived 13 mer peptide 47 (human); experiment: peptide microarray
T10 peptide: RQLITEERIPNNT
Method: as §1, §2

[12] = target: T11, human CD26-derived 13 mer peptide 42 (human); experiment: peptide microarray
T11 peptide: ASYDIYDLNKRQL
Method: as §1, §2

[13] = target: T12, human CD26-derived 13 mer peptide 120 (human); experiment: peptide microarray
T12 peptide: QITAPASMLIGDH
Method: as §1, §2

[14] = target: T13, human CD26-derived 13 mer peptide 119 (human); experiment: peptide microarray
T13 peptide: SIQITAPASMLIG
Method: as §1, §2

[15] = target: T14, human CD26-derived 13 mer peptide 113 (human); experiment: peptide microarray
T14 peptide: NTDSLSSVTNATS
Method: as §1, §2

[16] = target: T15, human CD26-derived 13 mer peptide 103 (human); experiment: peptide microarray
T15 peptide: VRVPYPKAGAVNP
Method: as §1, §2

[17] = target: T16, human CD26-derived 13 mer peptide 22 (human); experiment: peptide microarray
T16 peptide: LENSTFDEFGHSI
Method: as §1, §2

[18] = target: T17, human CD26-derived 13 mer peptide 96 (human); experiment: peptide microarray
T17 peptide: YSFYSDESLQYPK
Method: as §1, §2

[19] = target: T18, human CD26-derived 13 mer peptide 23 (human); experiment: peptide microarray
T18 peptide: NSTFDEFGHSIND
Method: as §1, §2

[20] = target: T19, human CD26-derived 13 mer peptide 12 (human); experiment: peptide microarray
T19 peptide: YKQENNILVFNAE
Method: as §1, §2

[21] = target: T20, human CD26-derived 13 mer peptide 112 (human); experiment: peptide microarray
T20 peptide: VVNTDSLSSVTNA
Method: as §1, §2

[22] = target: T21, human CD26-derived 13 mer peptide 104 (human); experiment: peptide microarray
T21 peptide: VPYPKAGAVNPTV
Method: as §1, §2

[23] = target: T22, human CD26-derived 13 mer peptide 99 (human); experiment: peptide microarray
T22 peptide: ESLQYPKTVRVPY
Method: as §1, §2

[24] = target: T23, human CD26-derived 13 mer peptide 115 (human); experiment: peptide microarray
T23 peptide: LSSVTNATSIQIT
Method: as §1, §2

[25] = target: T24, human CD26-derived 13 mer peptide 110 (human); experiment: peptide microarray
T24 peptide: VKFFVVNTDSLSS
Method: as §1, §2

[26] = target: T25, human CD26-derived 13 mer peptide 117 (human); experiment: peptide microarray
T25 peptide: TNATSIQITAPAS
Method: as §1, §2

[27] = target: T26, human CD26-derived 13 mer peptide 116 (human); experiment: peptide microarray
T26 peptide: SVTNATSIQITAP
Method: as §1, §2

[28] = target: T27, human CD26-derived 13 mer peptide 49 (human); experiment: peptide microarray
T27 construct: also called TEERJPNNTQWVT
T27 peptide: TEERIPNNTQWVT
Method: as §1, §2

[29] = target: T28, human CD26-derived 13 mer peptide 20 (human); experiment: peptide microarray
T28 peptide: SSVFLENSTFDEF
Method: as §1, §2

[30] = target: T29, human CD26-derived 13 mer peptide 102 (human); experiment: peptide microarray
T29 peptide: KTVRVPYPKAGAV
Method: as §1, §2

[31] = target: T30, human CD26-derived 13 mer peptide 26 (human); experiment: peptide microarray
T30 peptide: FGHSINDYSISPD
Method: as §1, §2

[32] = target: T31, human CD26-derived 13 mer peptide 51 (human); experiment: peptide microarray
T31 peptide: IPNNTQWVTWSPV
Method: as §1, §2

[33] = target: T32, human CD26-derived 13 mer peptide 18 (human); experiment: peptide microarray
T32 peptide: EYGNSSVFLENST
Method: as §1, §2

[34] = target: T33, human CD26-derived 13 mer peptide 108 (human); experiment: peptide microarray
T33 peptide: VNPTVKFFVVNTD
Method: as §1, §2

[35] = target: T34, human CD26-derived 13 mer peptide 111 (human); experiment: peptide microarray
T34 peptide: FFVVNTDSLSSVT
Method: as §1, §2

[36] = target: T35, human CD26-derived 13 mer peptide 114 (human); experiment: peptide microarray
T35 peptide: DSLSSVTNATSIQ
Method: as §1, §2

[37] = target: T36, human CD26-derived 13 mer peptide 89 (human); experiment: peptide microarray
T36 peptide: AYAQFNDTEVPLI
Method: as §1, §2

[38] = target: T37, human CD26-derived 13 mer peptide 109 (human); experiment: peptide microarray
T37 peptide: PTVKFFVVNTDSL
Method: as §1, §2

[39] = target: T38, human CD26-derived 13 mer peptide 24 (human); experiment: peptide microarray
T38 peptide: TFDEFGHSINDYS
Method: as §1, §2

[40] = target: T39, human CD26-derived 13 mer peptide 90 (human); experiment: peptide microarray
T39 peptide: AQFNDTEVPLIEY
Method: as §1, §2

[41] = target: T40, human CD26-derived 13 mer peptide 19 (human); experiment: peptide microarray
T40 peptide: GNSSVFLENSTFD
Method: as §1, §2

[42] = target: T41, human CD26-derived 13 mer peptide 46 (human); experiment: peptide microarray
T41 construct: also called NKRQL1TEERIPN
T41 peptide: NKRQLITEERIPN
Method: as §1, §2

[43] = target: T42, human CD26-derived 13 mer peptide 61 (human); experiment: peptide microarray
T42 peptide: WNNDIYVKIEPNL
Method: as §1, §2

[44] = target: T43, human CD26-derived 13 mer peptide 106 (human); experiment: peptide microarray
T43 peptide: KAGAVNPTVKFFV
Method: as §1, §2

[45] = target: T44, human CD26-derived 13 mer peptide 9 (human); experiment: peptide microarray
T44 peptide: SDHEYLYKQENNI
Method: as §1, §2

[46] = target: T45, human CD26-derived 13 mer peptide 118 (human); experiment: peptide microarray
T45 peptide: ATSIQITAPASML
Method: as §1, §2

[47] = target: T46, human CD26-derived 13 mer peptide 122 (human); experiment: peptide microarray
T46 peptide: PASMLIGDHYLCD
Method: as §1, §2

[48] = target: T47, human CD26-derived 13 mer peptide 130 (human); experiment: peptide microarray
T47 peptide: ATQERISLQWLRR
Method: as §1, §2

[49] = target: T48, human CD26-derived 13 mer peptide 44 (human); experiment: peptide microarray
T48 peptide: IYDLNKRQLITEE
Method: as §1, §2

[50] = target: T49, Purified recombinant human CD26 (rhDipeptidyl peptidase IV), R&D Systems CAT #1180-SE (human, UniProt P27487 29-766); experiment: SPR (Biacore)
T49 construct: Bought recombinant protein; also called hu-CD26; soluble human CD26
T49 sequence (P27487 29-766 limits assumed): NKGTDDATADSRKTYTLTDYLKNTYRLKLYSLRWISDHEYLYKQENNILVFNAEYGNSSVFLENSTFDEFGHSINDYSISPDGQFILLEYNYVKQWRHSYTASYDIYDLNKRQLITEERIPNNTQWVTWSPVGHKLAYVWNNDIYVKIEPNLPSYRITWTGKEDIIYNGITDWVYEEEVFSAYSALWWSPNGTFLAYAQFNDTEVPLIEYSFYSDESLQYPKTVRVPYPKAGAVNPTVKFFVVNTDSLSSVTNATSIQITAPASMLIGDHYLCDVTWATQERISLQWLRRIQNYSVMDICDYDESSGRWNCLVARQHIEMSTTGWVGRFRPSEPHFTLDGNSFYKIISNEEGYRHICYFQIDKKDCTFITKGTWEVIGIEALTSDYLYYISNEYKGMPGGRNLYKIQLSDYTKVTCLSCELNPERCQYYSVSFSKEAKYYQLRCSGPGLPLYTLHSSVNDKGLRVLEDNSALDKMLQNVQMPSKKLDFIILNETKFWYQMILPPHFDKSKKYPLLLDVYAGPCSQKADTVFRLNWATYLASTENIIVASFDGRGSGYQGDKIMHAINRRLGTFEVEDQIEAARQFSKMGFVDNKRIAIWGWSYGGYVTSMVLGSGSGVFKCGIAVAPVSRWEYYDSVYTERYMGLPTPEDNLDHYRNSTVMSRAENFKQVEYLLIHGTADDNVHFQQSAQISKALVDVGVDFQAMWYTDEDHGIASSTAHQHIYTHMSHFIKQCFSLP

Sequence of human CD26 on the cell surface (P27487 whole entry): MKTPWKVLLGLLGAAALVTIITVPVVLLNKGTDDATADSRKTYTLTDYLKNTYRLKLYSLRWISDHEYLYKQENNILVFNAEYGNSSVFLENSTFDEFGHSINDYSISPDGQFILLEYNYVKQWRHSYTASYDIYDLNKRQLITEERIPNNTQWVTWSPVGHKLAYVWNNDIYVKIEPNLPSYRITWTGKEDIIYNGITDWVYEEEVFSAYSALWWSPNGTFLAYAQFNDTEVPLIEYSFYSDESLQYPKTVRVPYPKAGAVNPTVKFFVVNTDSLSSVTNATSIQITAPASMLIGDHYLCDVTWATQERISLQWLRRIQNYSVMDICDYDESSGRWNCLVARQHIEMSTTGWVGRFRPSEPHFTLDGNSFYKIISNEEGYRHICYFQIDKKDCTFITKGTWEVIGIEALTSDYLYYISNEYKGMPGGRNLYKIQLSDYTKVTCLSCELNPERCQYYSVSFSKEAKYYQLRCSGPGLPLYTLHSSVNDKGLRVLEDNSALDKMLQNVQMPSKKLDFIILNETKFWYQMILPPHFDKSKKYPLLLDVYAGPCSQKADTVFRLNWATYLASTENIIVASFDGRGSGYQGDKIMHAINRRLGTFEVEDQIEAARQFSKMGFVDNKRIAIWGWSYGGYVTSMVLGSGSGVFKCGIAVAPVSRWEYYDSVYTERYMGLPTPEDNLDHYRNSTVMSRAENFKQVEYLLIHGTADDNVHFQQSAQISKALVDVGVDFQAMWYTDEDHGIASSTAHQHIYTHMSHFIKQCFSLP

B1: rhuMAb 409 (antibody, human IgG1, V domains shown)
VH: QVKLQESGPGLVQPSQTLSITCTVSGFSLTTYGVHWVRQSPGKGLEWLGVIWGGGRTDYDAAFISRLSISKDNSKSQVFFKMNSLQANDTAIYYCVRNRHDWFDYWGQGTTVTVSS
VL: DIQMTQSPSSLSASLGDRVTITCSASQGIRNSLNWYQQKPDGAVKLLIYYSSNLHSGVPSRFSGSGSGTDFSLTISNLEPEDIATYYCQQSIKLPFTFGSGTKLEIKR
notes: CM03 VH and VL with human IgG1 heavy chain constant region and human kappa constant region; also called X409
0: Mean Signal Value [2] | Mean Signal Value [3] | Mean Signal Value [4] | Mean Signal Value [5] | Mean Signal Value [6] | Mean Signal Value [7] | Mean Signal Value [8] | Mean Signal Value [9] | Mean Signal Value [10] | Mean Signal Value [11] | Mean Signal Value [12] | Mean Signal Value [13] | Mean Signal Value [14] | Mean Signal Value [15] | Mean Signal Value [16] | Mean Signal Value [17] | Mean Signal Value [18] | Mean Signal Value [19] | Mean Signal Value [20] | Mean Signal Value [21] | Mean Signal Value [22] | Mean Signal Value [23] | Mean Signal Value [24] | Mean Signal Value [25] | Mean Signal Value [26] | Mean Signal Value [27] | Mean Signal Value [28] | Mean Signal Value [29] | Mean Signal Value [30] | Mean Signal Value [31] | Mean Signal Value [32] | Mean Signal Value [33] | Mean Signal Value [34] | Mean Signal Value [35] | Mean Signal Value [36] | Mean Signal Value [37] | Mean Signal Value [38] | Mean Signal Value [39] | Mean Signal Value [40] | Mean Signal Value [41] | Mean Signal Value [42] | Mean Signal Value [43] | Mean Signal Value [44] | Mean Signal Value [45] | Mean Signal Value [46] | Mean Signal Value [47] | Mean Signal Value [49]
14.7%: percent inhibition, MTT assay, Jurkat CD26+ cells, 0.5 ug/ml [1]
4.8%: percent inhibition, MTT assay, Jurkat CD26+ cells, 0.05 ug/ml [1]
12.9%: percent inhibition, MTT assay, Jurkat CD26+ cells, 0.25 ug/ml [1]
10: Mean Signal Value [48]
19.7%: percent inhibition, MTT assay, Jurkat CD26+ cells, 2.5 ug/ml [1]
21.7%: percent inhibition, MTT assay, Jurkat CD26+ cells, 5 ug/ml [1]

B2: mouse monoclonal antibody CM03 (14D10) (antibody, V domains shown)
VH: QVKLQESGPGLVQPSQTLSITCTVSGFSLTTYGVHWVRQSPGKGLEWLGVIWGGGRTDYDAAFISRLSISKDNSKSQVFFKMNSLQANDTAIYYCVRNRHDWFDYWGQGTTVTVSS
VL: DIQMTQSPSSLSASLGDRVTITCSASQGIRNSLNWYQQKPDGAVKLLIYYSSNLHSGVPSRFSGSGSGTDFSLTISNLEPEDIATYYCQQSIKLPFTFGSGTKLEIK
notes: Mouse monoclonal antibody; also called murine MAb CM03
1.63 nM: Kd [50]
